Key:
[1] = Storage stability of insulin by RP-HPLC and HPCE (Example 2); type: physicochemical
[2] = Storage stability of insulin by RP-HPLC and HPCE (Example 1); type: physicochemical; details: stored at room temperature
Experimental: This mixture was then divided in half, half of which was stored at 4° C., and the other half stored at room temperature.

[3] = Skin penetration on topical application of somatotropin composition; details: composition topically applied
Experimental: A drug delivery composition formulated with somatotropin was formulated in one trial with 85% phosphatidylcholine to which lipoic acid and ascorbyl palmitate were added.

| Substance | time stable (RP-HPLC and HPCE) ([1]; stored at 4° C.) | time at which denaturing started ([1]; stored at room temperature) | time at which denaturing started [2] | skin penetration [3] |
| --- | --- | --- | --- | --- |
| insulin standards: recombinant human insulin in 0.01 N HCl, 1 mg/ml (Example 1) or 5 mg/ml (Example 2) | 22 weeks | ≤ 1 week | ≤ 7 days |  |
| Somatotropin: pituitary growth hormone, formulated with 85% phosphatidylcholine, lipoic acid and ascorbyl palmitate |  |  |  | appeared to penetrate the skin well |

— US9050248B2, “Methods of delivering stable topical drug compositions” (Transdermal Biotechnology, Inc., priority 2002, dated 2015)
